In patent US20250313629A1:

Target: cynomolgus Lag3 on cells (HEK293F cells transiently transfected with cyno-LAG-3; activated cynomolgus PBMC/T cells) (cynomolgus)
Assay: flow cytometry on CD3/CD28-activated cynomolgus PBMC, antibody at 10 ug/ml

percentage of Lag3 positive cells: 9.19%
Substance: DP47 (human isotype) (antibody)
